These results are taken from patent publication US20060222645A1 (LEXICON PHARMACEUTICALS, published 2006).

One test concerns the target T1, bovine LPL (bovine, UniProt P11151 29-478).
T1 sequence (looked up): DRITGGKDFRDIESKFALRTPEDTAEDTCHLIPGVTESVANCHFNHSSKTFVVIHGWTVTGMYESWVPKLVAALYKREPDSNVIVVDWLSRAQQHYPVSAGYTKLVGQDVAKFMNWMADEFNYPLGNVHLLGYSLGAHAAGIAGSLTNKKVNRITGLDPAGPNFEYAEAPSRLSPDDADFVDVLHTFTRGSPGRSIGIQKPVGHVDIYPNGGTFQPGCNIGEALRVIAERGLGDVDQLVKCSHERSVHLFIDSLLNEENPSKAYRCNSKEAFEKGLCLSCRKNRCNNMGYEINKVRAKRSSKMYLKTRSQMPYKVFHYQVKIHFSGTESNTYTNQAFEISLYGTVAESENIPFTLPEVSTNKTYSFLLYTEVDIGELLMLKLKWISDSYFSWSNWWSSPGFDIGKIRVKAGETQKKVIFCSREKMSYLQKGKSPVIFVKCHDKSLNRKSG
As to the kind of experiment: cell-based or functional assay.

The target of test [1] is T2, full-length human ANGPTL4 (human, UniProt Q9BY76 26-406).
T2 construct: also called hANGPTL4
T2 sequence: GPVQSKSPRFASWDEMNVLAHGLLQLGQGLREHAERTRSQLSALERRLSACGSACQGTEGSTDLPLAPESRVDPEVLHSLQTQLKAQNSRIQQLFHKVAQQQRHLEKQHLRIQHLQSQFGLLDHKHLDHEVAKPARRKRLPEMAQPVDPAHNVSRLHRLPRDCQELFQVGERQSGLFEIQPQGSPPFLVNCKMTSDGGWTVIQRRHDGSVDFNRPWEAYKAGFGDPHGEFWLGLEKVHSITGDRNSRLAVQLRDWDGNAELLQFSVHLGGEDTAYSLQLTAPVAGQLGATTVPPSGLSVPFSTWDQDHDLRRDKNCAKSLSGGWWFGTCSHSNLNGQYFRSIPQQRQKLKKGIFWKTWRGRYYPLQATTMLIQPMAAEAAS
Briefly: hybridoma screening ELISA, coated antigen 0.25 ug/ml.

A further test deals with T3, His-SUMO-gs2 (mouse, UniProt Q9Z1P8 49-98).
T3 construct: Translated in vitro (RTS E. coli); also called gs-2 fragment of mANGPTL4
T3 chain: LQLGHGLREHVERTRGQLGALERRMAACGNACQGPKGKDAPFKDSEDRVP
Briefly: Western blot of in vitro translated fragments. Here is the method:
(§1) The in vitro translated protein fragments were separated on four SDS-PAGE gels, along with N-mANGPTL4, and transferred to four nitrocellulose blots. The blots were then blocked for 1 to 2 hours with TBS containing 5% nonfat dried milk (TBS-NFDM). After blocking, the blots were rinsed with TBS containing 0.5% Tween-20 (TBS-Tween) four times for five minutes each rinse. The blots were then incubated in TBS-NFDM containing tester antibody (14D12, 15F2, 90B4, or anti-His) overnight at 4° C. The blots were rinsed with TBS-Tween four times for five minutes each rinse and then incubated in TBS-NFDM containing a 1:6000 dilution of HRP-coupled goat anti-mouse antibody (Southern Biotechnology Associates) for 1 hour. The blots were rinsed with TBS-Tween four times for five minutes each rinse and then developed using SuperSignal West Pico Chemiluminescent Substrate (Pierce Biotechnology) as directed by the manufacturer. Alternatively, blots can be developed using the Western Breeze™ Immunodetection Kit (Invitrogen).
(§2) Antibody 14D12 bound only to N-mANGPTL4 in that experiment. […] That result may be due to the fact that 14D12 is a weaker binder than 15F2 and 90B4. See, e.g., Example S and FIG. 33. Antibody 15F2 bound His-SUMO-gs1. […] Antibody 90B4 bound to His-SUMO-gs2 and His-SUMO-gs4.

Another test concerns the target T4, His-SUMO-gs4 (mouse, UniProt Q9Z1P8 99-151).
T4 construct: Translated in vitro (RTS E. coli); also called gs4 fragment of mANGPTL4
T4 sequence: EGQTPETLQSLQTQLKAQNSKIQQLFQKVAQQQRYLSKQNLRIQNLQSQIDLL
Briefly: Western blot of in vitro translated fragments. Here is the method:
as §1, §2

The next test deals with T5, N-mANGPTL4 (mouse).
T5 construct: E. coli construct; also called portion of the amino terminal domain of mouse ANGPTL4
T5 chain: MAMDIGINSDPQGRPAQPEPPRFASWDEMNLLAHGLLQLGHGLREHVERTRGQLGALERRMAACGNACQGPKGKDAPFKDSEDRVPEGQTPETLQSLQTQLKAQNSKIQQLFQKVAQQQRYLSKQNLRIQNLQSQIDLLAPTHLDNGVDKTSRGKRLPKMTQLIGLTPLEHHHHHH
Briefly: ELISA, coated antigen 0.25 ug/ml, antibody 0 to 10 ug/ml. Here is the method:
(§3) Antibodies were screened for binding to mouse ANGPTL4 using ELISA. Ninety-six well Nunc Maxi-Sorp ImmunoPlates™ (Nunc #446612, Roskilde, Denmark) were coated by adding 50 μl per well of a 2.5 μg/ml solution of ANGPTL4 in coating buffer (BupH™ Carbonate-Bicarbonate Buffer, Pierce #28382, Rockford, Ill.) overnight at 4° C. Coating buffer was removed and the plate was blocked by adding 250 μl per well of blocking buffer (1% Blocker™ BSA, Pierce #37525, in PBS) for two hours at room temperature. 50 μl of hybridoma supernatant (undiluted or diluted in blocking buffer) or isolated anti-ANGPTL4 antibody (undiluted or diluted in blocking buffer) were added to the wells and incubated for at least one hour at room temperature. Wells were washed four times with PBS/Tween 20. 100 μl of diluted (1:5,000 to 1:10,000) HRP-conjugated goat anti-mouse IgG (Pierce #31446) were added to the wells and incubated for one hour at 37° C. Wells were washed six times with PBS/Tween 20. Anti-ANGPTL4 antibody was detected by adding 50 μl of TMB (tetramethyl benzidine) solution (ImmunoPure® TMB Substrate Kit, Pierce #34021) to the wells for 5 to 10 minutes. Plates were read spectrophotometrically at 450 nm using a microplate reader (Molecular Devices, Sunnyvale, Calif.).
(§4) The binding affinity of antibodies 90B4, 15F2, and 14D12 were determined for each of N-mANGPTL4 and N-hANGPTL4 by ELISA. N-hANGPTL4 was expressed and purified from bacteria as described above for N-mANGPTL4 in Example Q. A polynucleotide sequence encoding amino acids 24 to 175 of human ANGPTL4 was cloned into expression vector pET22b(+), which encodes an N-terminal pelB leader sequence and a C-terminal His tag. Following translation of the protein and removal of all but 11 amino acids of the pelB sequence, N-hANGPTL4 has the sequence shown in SEQ ID NO: 11. That sequence contains 11 amino acids from the pelB sequence, followed by amino acids 24 to 175 of human ANGPTL4 (underlined in Table 6), followed by a 2 amino acid linker and the His tag. ELISAs were performed as discussed above in Example K, except the plates were coated with 50 μl of 0.25 μg/ml of protein (N-mANGPTL4 or N-hANGPTL4) per well. Binding was measured at 0 μg/ml, 0.08 μg/ml, 0.4 μg/ml, 2 μg/ml, and 10 μg/ml antibody.

In another test the target is T6, N-hANGPTL4 (human).
T6 construct: E. coli construct
T6 chain: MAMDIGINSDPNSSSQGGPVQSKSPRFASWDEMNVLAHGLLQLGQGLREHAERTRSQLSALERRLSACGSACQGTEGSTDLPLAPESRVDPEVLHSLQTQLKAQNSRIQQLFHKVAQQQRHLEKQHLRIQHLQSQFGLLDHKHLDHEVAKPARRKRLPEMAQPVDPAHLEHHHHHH
Described as above. Here is the method:
as §3, §4

Another test concerns the target T7, His-SUMO-gs1 (mouse, UniProt Q6TMA8 24-73 (rat entry)).
T7 construct: Translated in vitro (RTS E. coli); also called gs-1 fragment of mANGPTL4
T7 chain: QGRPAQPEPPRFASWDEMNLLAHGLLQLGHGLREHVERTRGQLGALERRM
As to the kind of experiment: Western blot of in vitro translated fragments. Here is the method:
as §1, §2

In the next test the target is T8, His-SUMO-gs3 (mouse, UniProt Q9Z1P8 74-123).
T8 construct: Translated in vitro (RTS E. coli); also called gs-3 fragment of mANGPTL4
T8 chain: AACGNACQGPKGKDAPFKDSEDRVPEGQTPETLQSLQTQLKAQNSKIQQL
Briefly: Western blot of in vitro translated fragments. Here is the method: as §1, §2

For another test, the target named is T9, His-SUMO-gs5 (mouse, UniProt Q9Z1P8 124-180).
T9 construct: Translated in vitro (RTS E. coli); also called gs5 fragment of mANGPTL4
T9 sequence: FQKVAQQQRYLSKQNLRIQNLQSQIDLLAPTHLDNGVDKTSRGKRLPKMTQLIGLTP
Briefly: Western blot of in vitro translated fragments. Here is the method: as §1, §2

B1: full-length mouse ANGPTL4 (ligand)
chain: QGRPAQPEPPRFASWDEMNLLAHGLLQLGHGLREHVERTRGQLGALERRMAACGNACQGPKGKDAPFKDSEDRVPEGQTPETLQSLQTQLKAQNSKIQQLFQKVAQQQRYLSKQNLRIQNLQSQIDLLAPTHLDNGVDKTSRGKKLSKMTQLIGLTSNATHLHRPARDCQELFQEGERHSGLFQIQPLGSPPFLVNCEMTSDGGWTVIQRRLNGSVDFNQSWEAYKDGFGDPQGEFWLGLEKMHSITGDRGSQLAVQLQDWDGNAKLLQFPIHLGGEDTAYSLQLTEPTANELGATNVSPNGLSLPFSTWDQDHDLRGDLNCAKSLSGGWWFGTCSHSNLNGQYFHSIPRQRQERKKGIFWKTWKGRYYPLQATTLLIQPMEATAAS
For B1, the “IC50 (concentration required for 50% inhibition) of LPL activity, release of 3H-oleic acid” value with bovine LPL was around 25 nM.

B2: monoclonal antibody 90B4 (antibody, V domains shown)
VH: EVQLQQSGPELMKPGASVKMSCRTSGYTFTDYSIHWVKQSHGKRLEWIGYINPYNGDTYCDQNFKGKATLTFNKASSTAYMEIPRLTSDDSAVYYCTRWKTIQAPFAYWGQGTLVTVSA
VL: EIQMTQSPSSMSASLGDRITITCQATQDIVKNLNWYQQKPGKPPSFLIHYATELAEGVPSRFSGSGSGSDYSLTISNLESEDFADYYCLQSYDFPYTFGGGTKLEIN
For the molecule B2, the binding result (in test [1]; in the test with His-SUMO-gs2; in the test with His-SUMO-gs4; with N-mANGPTL4; with N-hANGPTL4) was “binds” throughout.

B3: monoclonal antibody 15F2 (antibody, V domains shown)
VH: EVKLVESGGGLVKPGGSLKLSCAASGFAFSRYDMSWVRQTPEKRLEWVATISTDGSYTYYPDSVKGRFTISRDNARNTLYLQMGSLRSEDTALYFCVRHEQSTIVPHYPLDYWGQGTSVTVSS
VL: EIQMTQSPSSMSASLGDRITITCQATQDIVKNLNWYQQKPGKPPSFLIHYATELAEGVPSRFSGSGSGSDYSLTISNLESEDFADYYCLQSYDFPYTFGGGTKLEINR
Consider B3, for which the binding result in the test with His-SUMO-gs1, in the test with N-mANGPTL4 and with N-hANGPTL4 was “binds” throughout.

B4: monoclonal antibody 14D12 (antibody, V domains shown)
VH: EVKLVESGGGLVKPGGSLKLSCAASGFAFSRYDMSWVRQTPEKRLEWVATISTGGSYTYYPDSVKGRFTISRDNARNTLYLQMGSLRSEDTALYFCVRHEQSTVVPHYPLDYWGQGTSVTVSS
VL: DIVMTQSPATLSVTPGDRVSLSCRASQSIGDYLHWYQQKSHESPRLLIKYASQSISGIPSRFSGSGSGSDFTLSIDSVEPEDVGVYYCQNGHSFPFTFGSGTKLEIKR
On to B4, for which the binding result with His-SUMO-gs1 is recorded as “no binding”; in the test with His-SUMO-gs3, “no binding”; with His-SUMO-gs5, “no binding”; in the test with His-SUMO-gs2, “no binding”; with His-SUMO-gs4, “no binding”; with N-mANGPTL4, “binds”. Further, the binding result with N-hANGPTL4 is given as “binds”.
